Laboratory results from a protein production outcome set (Wang et al. 2014).

Assay: label from the status in PepcDB records
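Also: failed if final PepcDB status was selected cloned or expressed and not failed if soluble or beyond.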

MSAPTTFSVALHNETATAQLMADLALLVGPGDVITLTGDLGAGKTAAARAMIRYLADDEALEVPSPTFTLVQGYELPPFPVMHADLYRVEDESELEEIGLSPLPDATLVLIEWPERAPSALPEDRIDIALTHRPALGSNARAADITGYGKSAAQVARLKALREFLDASGYLDAMRRRMAGDASTRSYARLLRDDEIVILMNFPQRPDGAALYNGKSYSAAVHLAENVKPFVAIDEGLRAQGISAPAIHHADLDHGFLISEDFGSEGVIEGNPPRPIPERYEAATDVLAVLHGKTLPETLPLDGQSYAIPVFDTEAMLIEIGLMPEWYLPDRNAPLSEPKRAEFFAMWRELLKKPLAAPRTWIIRDYHSPNLIWLGMRTGIERVGVIDFQDTVLGPQSYDVVSLLQDARIDVPENLELTLLSRYIKARRAGDASFDPAGFAELYAIMSAQRNTRLLGTFARLNRRDGKPHYLRHQPRIWTYLQRSLAHPALSHLRDWYLANVPPPQRPSQEPAPEPPQGLEHHHHHH
protein production: not failed

MVVDSVTMEEEDTKEEAAMVATEGEDTKEEEDDTKEAVGDKEEGEVTAATAAATKVTMAAQGVVHMPEKRFRLSLVTKST
protein production: failed

MSAVCGGAARMLRTPGRHGYAAEFSPYLPGRLACATAQHYGIAGCGTLLILDPDEAGLRLFRSFDWNDGLFDVTWSENNEHVLITCSGDGSLQLWDTAKAAGPLQVYKEHAQEVYSVDWSQTRGEQLVVSGSWDQTVKLWDPTVGKSLCTFRGHESIIYSTIWSPHIPGCFASASGDQTLRIWDVKAAGVRIVIPAHQAEILSCDWCKYNENLLVTGAVDCSLRGWDLRNVRQPVFELLGHTYAIRRVKMESCPVTQTRSQLTATSAFWVQAVLLPQPTE
protein production: failed

MNIKEYLQQHPQWKKRIHGFIMHPVKTRPYWWIRVWQPFYIKKGRGSVIYSSVRKDLPPFHLFQMGKYSVVEDFSCLNNAVGDIVIGDYCRIGLGNTVIGPIRIDNGVNISQNVVLIGLDHNYQDITQGIIEQGITTSPIHIGEHTIIGANVIVLPGITIGKHCFIGAGCVVTQNIPDYCVTVGNPARIIKRYNPQSQTWEKI
protein production: failed

MWNATPSEEPGFNLTLADLDWDASPGNDSLGDELLQLFPAPLLAGVTATCVALFVVGIAGNLLTMLVVSRFRELRTTTNLYLSSMAFSDLLIFLCMPLDLVRLWQYRPWNFGDLLCKLFQFVSESCTYATVLTITALSVERYFAICFPLRAKVVVTKGRVKLVIFVIWAVAFCSAGPIFVLVGVEHENGTDPWDTNECRPTEFAVRSGLLTVMVWVSSIFFFLPVFCLTVLYSLIGRKLWRRRRGDAVVGASLRDQNHKQTVKMLGGSQRALRLSLAGPILSLCLLPSL
protein production: failed

MNNPKPCEWKSNELSRGYIADYKAFNFVDGEGVRCSLYVSGCPFHCEGCYNKAAQSFKYGKPYTKELEDDILKDIGHESVQGLTLLGGEPFLNTATCLSVVKRIRATYGKTKDIWSWTGYTWDEMMQETTDKLELLSLIDVLVDGRFEQKLFDPNLAFRGSSNQRIIDVQKSLAADEVVLYELLEHHHHHH
protein production: not failed

MKFFSLADEAEFKSIIISKNKAVDVIGSKLGGQVVSFSDEWFASAENLIQPTAPIRDPTRFVHSGAWYDGWETRRHNEMEYDWVIIKMGVAAAHIIGGEIDTAFFNGNHAPFVSIEALYDEGEEGNIVEDDSRWVEIVEKFECGPSQRHLFVRGNGLTKERFTHIKLKMYPDGGIARFRLYGRVVPPELKTKDHIIDLAYVCNGAVALKYSDQHFGSVDNLLLPGRGHDMSDGWETKRSRQPGHTDWAVIQLGRESSFIEKIIVDTAHFRGNFPQFITVEGCLKESESSENTGEGTWVELVGKSKTGPDKEHVYEIRKSIRVSHVKLTIIPDGGVKRIRVWGY
protein production: not failed

TIDLRMQQYAEEAMVKQMKEVLQPIFDKEKRGRSYAPFSRDITSDEQRSILLRAMKQTDRWREMKKAGISESEIRASFNKKRKMQVWNWRGTIDTVMSPLDSIKYLKGILRTGFMAMNPHNGHIKAYVGGINFRNFQYDMVSQGRRQVGSTIKPFLYSLSMLEGISPCDEMLHVSQTLFTESGKAWTPKNTGARRTGEMVSIKWGLQNSSNWVTAYLMGRTSPYTFVRLLRSYGLSGYLEPSLSICLGTPDVSVQEMVSAYTTFVNKGIRVNPLPITRIEDQYGNVVAQFSPNMVEVLPPDAAYKMLYMLKSVVDGGTGSRLRYRYGFKLDMGGKTGTTQNNSDGWFVGFTPSLVAGCWVGGEDRSVHFDSMSNGQGAASALPIFAEFLKRVYADPKLGYTTE
protein production: failed

MLIKQTDYFRIYRVINSLLISQNADPASASMYFSTFGAFILQQHYKVKAVPKGGLAAYNLGGTVLLFADHREDGYVTGAGENFHCWVEADGWAIDFMAPAFSEGTDALAVPAKMFQRPLSAMAASINDLGQSGDFFYRSEPEATARRFADWHKQAMIGDMASVAANWFRKSPKQMAASLSVTDRDGKARTVPLTGEMLTGAW
protein production: not failed

TVDLNMQRRAEETVQKAFQQARSRGLRADQIAVAAVDPRTHFVKVLVGGRDYEESQFNRAIQSQRQPGSAFKPFVYYSAFASGNYTPFSTIDDSPVSYPDGNGTYSPQNYGGSFSGTVSLYDALVTSKNVPAVKLGKAVGLEKVIELCRLLGIESPLQPVISLPLGAVGISPLEMASAYATFASNGWQSETTLILRVTDSQGNVLLDNTPQPRLVLDPWATASLTTVLQGVVNGGTGQAANLGDRPAAGKTGTTSSERDVWFVGYVPQLAAAVWIGNDDYRPMGTGTTGGGDAAPIWRAFMQEALKGEEPQYF
protein production: failed

MILCYGDNNIMMDIYKEIKEEMKKVYLSRDCCFVGYSGGKDSSAMLTLLWDAIAELPLEERTNPIHILTSEVGVETPAMTAYISRTLQKIQEKANEQNLPFVVHGVKPLMKESYWYKVIGRGVLPPSGNSRLRWCTDSLKVKPMQRKMKEILIASQTTTAVECFDEYDGVLMLAVRNEESARRRHSIQKHEISNDSLFSRHNDMKNILCFNPVKFLTGDEVWMLLLDRGI
protein production: failed

MPADWLARPRFVSAFSIVVFLLLAAFGEYVVRIEAERLRVIAQNQVLAEASTIRARLEGELYSTLYLANGLSSYVSAHKALDPAAVKIILSTVFGYGRHLRNIVLAPDNEVRFTYPLKGNEKVIGFRYQDNAEQWRAVKRAMETRTTVLSGPVDLVQGGRGLISRTPVFLPDGEYWGIVALVINIDSLFATINKDRRPARITWALRSNDETGEKGRILFGDAWLFDHDHVNLSIAIPGGSWELAATPAEGWRPPGKRLLVLRIATLALSGLIAALVFLVLFERIRIQHLALHDSLTDLPNRRLLDDRLERAIAQARRNRDGFALLYVDLDDFKPINDRFGHRAGDHVLVEIARRLRGALRRADTVARVGGDEFMLILPGARGRHGAMTVVQKLAGIICQPIGYKGQYLNVSASIGVSTYPENGVTADALISHADGSMYRFKQHRKSPTDINGNQRSGAVSSEVS
protein production: failed

EARGFTAEDFALSHPGGALGRKLLLRVNDIMHTGDEIPHVGLQATLRDALLEITRKNLGMTAICDDDMNIIGIFTDGDLRRVFDTGVDMRDASIADVMTRGGIRIRPGTLAVDALNLMQSRHITCVLVADGDHLLGVVHMHDLLRA
protein production: not failed

MKKSILFTFVLCLLSQWSVAQAPKWVEKAKRSVFSIVTYDKDDKIQNTGNGFFVTEDGVALSDYSLFKGAQRAVIINSEGEKMPVECILGANDMYDIIKFRVGITVKKVPALQVAALAPAVGAEVYLLPYSTQKGGNVTRGKVKKVDNIGGDKYHYYTLDMVLKDKMVSCPVTTADGKVFGVAQKSSGQDTASISYAAGAAFAMSQNISALALSDPALNAIGIKKGLPEDEDQALVYLFIASTQSTPEAYAIALDDFIKTFPNSADGYLRRAGNYVFADKDENHMDKAAADLEHALKVAQKKDDTYYNIAKLIYNYQLSKPETVYKDWTYDQALENVRSAIAIQSLPVYQQLEGDILFAKQDYAGAFASYDKVNQTELASPASFFSAAKAKELSKAAPEEVIALLDSCIARCQTPITSDLAPYLLERAQMYMNVEKYRLALADYDAYFNAVKGSVNDLFYYYREQAAFKAKQFQRALDDIAKAIELNPEDLTYRAEQAVVNLRVGRYEEAEKVLKDALAIDPKYAEGYRLLGICQIQLKQEKAACASFAKAKELGDPNVDELIKKHCK
protein production: failed

MKRMLAWLYAPLVFAGFIGAGVWWMSAGPASASGLLGVFGAALGVSFLAEWCLPYEPGWNRSQGDRLRDSLHALVNESLNALGLLALPGLVALLAHDGLWPQGWPLWGQLLLAIVIADCGITLAHYASHRLAWLWRLHAVHHSVQRMYGFNGLLKHPLHQLIEASAGLLPLVLLGIPLPVAQLLALAIAVQLLLQHSNVDMRLGPLRWIFAWAPVHRFHHMKYGRAGDVNFGLFFNLWDWLLGTAFYRDDYCMRQGDLGIGSRADYPVDYWPQLLEPFKAQRYGAEPVVPEQLRRRVRPASEA
protein production: failed

MMSNLIILPMLLPFVCALILVFTKNKNRISKILSITTMIVNTMISIALLIYVVNHKPITLDFGGWKAPFGIQFLGDSLSLLMVSVSSFVVTLIMAYGFGRGEKRVNRFHLPTFILLLTVGVIGSFLTSDLFNLYVMFEIMLLASFVLVTLGQSVEQLRAAIVYVVLNILGSWLLLLGIGMLYKTVGTLNFSHLAMRLNHMENNQTITMISLVFLVAFSSKAALVIFMWLPKAYAVLNTELAALFAALMTKVGAYALIRFFTLLFDHHPSVTHTLLVFMACITMIIGAFGVIAYKDIKKIAAYQVILSIGFIILGLGSHTISGVNGAIFYLANDIIVKTLLFFVIGSLVYMSGYRNYQYLSGLAKREPFFGVAFVVVIFAIGGVPPFSGFPGKVLIFQGAITNGNYIGLALMIVTSLIAMYSLFRVMFIMYFGDADGEQVQFRPLPIYRKGLLSVLVVVVLAMGIAAPVVLKVTEDATNLNMKEDVFQKNVNTHLKEVNHK
protein production: failed

MSLAHERSSGIYLVAASAVLWSTAGLFVRMADMDMWSMVAWRSAFTFLALGAFFLLRNRFARQRSSMSFGFPGIAGCLVSAIAAITYIASLRWTTVANVMTIYATLPFIVAGIAFVCLRDRVTYRFVIAGCLAFVGVLISVGAAVSHQDMLGIFAAFIMTTGCATQIVIAKRFPDMDTTLMTALAALICICVALPLMQFEIPAPTQIIACALYGVLTTAFGYIFLLQGSRRINAGEAGLISMLDVILGPVWVWLFYNEVISPIVLTGGGIVIMSVAWYLAGDRRAATAP
protein production: failed

MFFVNRRLIKRVFLGFAVIALLLPLVLKQSFEITAEVIVQSKKLSQTDANTVLAPDSDKFIPPSLADMETESNILRSPTLIRDTIDQLRREGQFGGSEGLLTRLIVKPIRNGLIDPLRNHVINPVRGFFGLAVDPVRDTSLDAFTDQAVKDLKIGTLPGSNVISIVYASPNAAEGTRFVERLLANYLKNRQDLQSNELPEAFYEQKKAQYQSRLDDLEGKRQALLEAAHASDPKEEITFRLNAINTEEQSLNGYRDQALENQRRLDYLQKNLAAARKAGLTDYTFPFAFANTVDNVAYEDREIKQLGEQLTNLVSQYGTTADTYRADSVPMQQQREQIVRARAQFLKVVENRVRERSSDLQITQSVIAQKTARINDYKARVRDLQEVLSKLRQLDTEIDALHKAFFTYTQRYEESRGERLISGELSNARVLSQPYEPSEAAFPKPMLIIPLGLLTGLLLAIALGYVYEFFDHRFKHPAQVSDHLGLPVLMVLNAVEQPQVNPYPRWTWRWAWHWAKQ
protein production: failed

MVQNLSREQYGFVIWVVGNNSIPEEIRSLTTFLSWENLGTCLLLDPNAHVGSLCCSHRRVLLVEEFLGSYLSWGILDFDLFVQSNALNGGVIDMLRRFGVEVHISQPPTKTKKRSNANRKGFPDIELGKAMHSRALERNPSPMLLISSDSRLHTDVSHITSLAFEIILFHTKKAPKDLKDLATKRVLWFDGVSKLTEVRI
protein production: failed
